Data published in patent CN115819587A (BEIJING DONGFANG BIOTECH CO LTD; BEIJING JINGYI TAIXIANG …, dated 2023).

Key:
huFc-NKG2A/CD94 = molecular target: T1, huFc-NKG2A/CD94 (UniProt P26715 94-233; Q13241 32-179, limits assumed); experiment: phage supernatant ELISA on huFc-NKG2A/CD94 against huFc-NKG2C/CD94 and huFc-NKG2E/CD94; criterion of selection met by MA-1
T1 construct: Construct known only by its name; the order of the pieces follows the name huFc-NKG2A; not shown: human Fc (huFc)

huFc-NKG2E/CD94 = molecular target: T2, huFc-NKG2E/CD94 (UniProt Q07444 94-240; Q13241 32-179, limits assumed); experiment: ELISA, dilution series of MA-1 on huFc-NKG2E/CD94, anti-mouse Ig-HRP
T2 construct: Construct known only by its name; not shown: human Fc (huFc)

huFc-NKG2C/CD94 = molecular target: T3, huFc-NKG2C/CD94 (UniProt P26717 94-231; Q13241 32-179, limits assumed); experiment: ELISA, dilution series of MA-1 on huFc-NKG2C/CD94, anti-mouse Ig-HRP
T3 construct: Construct known only by its name; not shown: human Fc (huFc)
T3 sequence (P26717 94-231 limits assumed, chain 1 of 2): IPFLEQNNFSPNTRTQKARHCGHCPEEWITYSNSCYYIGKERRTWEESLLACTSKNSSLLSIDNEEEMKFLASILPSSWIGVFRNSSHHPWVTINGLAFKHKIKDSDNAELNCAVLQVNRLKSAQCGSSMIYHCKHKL
T3 sequence (Q13241 32-179 limits assumed, chain 2 of 2): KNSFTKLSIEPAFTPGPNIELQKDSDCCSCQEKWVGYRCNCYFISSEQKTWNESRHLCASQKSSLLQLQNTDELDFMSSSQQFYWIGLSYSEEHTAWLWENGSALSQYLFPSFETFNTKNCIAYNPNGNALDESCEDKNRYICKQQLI

T1 sequence (P26715 94-233 limits assumed, chain 1 of 2): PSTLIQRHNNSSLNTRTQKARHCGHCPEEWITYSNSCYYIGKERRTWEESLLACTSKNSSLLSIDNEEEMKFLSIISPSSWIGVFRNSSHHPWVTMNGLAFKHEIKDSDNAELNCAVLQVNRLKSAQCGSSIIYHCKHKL
T1 sequence (Q13241 32-179 limits assumed, chain 2 of 2): as the sequence (Q13241 32-179 limits assumed, chain 2 of 2) above
T2 sequence (Q07444 94-240 limits assumed, chain 1 of 2): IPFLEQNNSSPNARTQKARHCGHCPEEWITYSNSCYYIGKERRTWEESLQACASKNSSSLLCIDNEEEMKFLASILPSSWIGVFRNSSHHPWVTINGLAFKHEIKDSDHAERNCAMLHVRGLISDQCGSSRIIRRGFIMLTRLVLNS
T2 sequence (Q13241 32-179 limits assumed, chain 2 of 2): as the sequence (Q13241 32-179 limits assumed, chain 2 of 2) above

Binder	OD450nm ratio, NKG2A against NKG2C/E (huFc-NKG2A/CD94) [fold]	binding result (huFc-NKG2E/CD94)	binding result (huFc-NKG2C/CD94)
MA-1 噬菌体单克隆抗体 (phage-displayed single-chain antibody MA-1) (scFv) EVKLEESGGGLVKPGGSLKLSCAASGFAFSDYDMSWVRQTPEKRLEWVATISSGGSYTYYPDSVKGRFTISRDNARNTLYLQMSSLRSEDTALYYCTSPRQVGLRKAFDYWGQGTTLTVSSDIVVTQSPALMSASPGEKVTMTCSASSSVSYMYWYQQKPRSSPKSWIYLTSNLASGVPARFSGSGSGTSYSLTISSMEAEDAATYYCQQWSSNPFTFGSGTKLEIKRAD	≥ 3	–	–
MA-1 鼠源全抗分子 (mouse IgG2a / mouse Ck full antibody) (antibody, V domains shown, plain joining would double 'AD' at the junction; also called MA-1鼠源抗体; 抗NKG2A单克隆抗体MA-1) VH: EVKLEESGGGLVKPGGSLKLSCAASGFAFSDYDMSWVRQTPEKRLEWVATISSGGSYTYYPDSVKGRFTISRDNARNTLYLQMSSLRSEDTALYYCTSPRQVGLRKAFDYWGQGTTLTVSS VL: DIVVTQSPALMSASPGEKVTMTCSASSSVSYMYWYQQKPRSSPKSWIYLTSNLASGVPARFSGSGSGTSYSLTISSMEAEDAATYYCQQWSSNPFTFGSGTKLEIKR	–	no binding	no binding
